Experimental data taken from paper PMC9879961 (Nature Communications, 2023).
Changes are numbered by the printed parent chain. Numbers in names are those of the source. Each block holds one binder with its values, some of them ahead of it.

What was measured:
RAD51 [1] = target: T1, RAD51 (UniProt Q06609 1-339); assay: pull-down; CTRB species held through the S-tag on S-Protein agarose; RAD51 and CTRB 4 µg each; 25 µl buffer T (25 mM Tris-HCl pH 7.5, 0.5 mM EDTA, 10% glycerol, 0.01% Igepal) with 150 mM KCl and Benzonase; on ice 30 min, resin 1 h at 4 °C; SDS-PAGE, Coomassie; conditions: both partners purified
T1 construct: No tag is named; also called RAD51 recombinase; source: E. coli BLR pRARE (pET11-RAD51), purified (ammonium sulfate, Q Sepharose, hydroxyapatite, Mono-Q)
T1 sequence (looked up): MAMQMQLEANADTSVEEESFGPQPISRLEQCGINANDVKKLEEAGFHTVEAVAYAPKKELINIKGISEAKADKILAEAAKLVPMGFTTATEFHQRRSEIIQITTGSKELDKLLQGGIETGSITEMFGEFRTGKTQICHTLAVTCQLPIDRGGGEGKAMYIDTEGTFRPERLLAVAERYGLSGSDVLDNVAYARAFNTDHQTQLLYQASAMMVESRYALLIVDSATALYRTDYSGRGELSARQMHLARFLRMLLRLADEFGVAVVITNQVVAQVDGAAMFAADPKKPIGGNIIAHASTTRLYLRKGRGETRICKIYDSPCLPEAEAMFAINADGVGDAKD

CTRB = target: T2, CTRB (Homo sapiens, UniProt P51587 3194-3418); assay: EMSA; highest affinity of the three DNAs; EMSA: 10 nM DNA, 35 mM Tris pH 7.5, 1 mM MgCl2, 1 mM DTT, 100 ug/ml BSA, 50 mM KCl, 25 C, 5 min; 8% native PAGE in TAE; conditions: protein: recombinant; tags: N-term His6-thioredoxin-S (pET32a), C-term Flag; label: 5' Cy5 on H3; fork 1:2, 40 bp duplex with two 40 nt ssDNA arms
T2 sequence: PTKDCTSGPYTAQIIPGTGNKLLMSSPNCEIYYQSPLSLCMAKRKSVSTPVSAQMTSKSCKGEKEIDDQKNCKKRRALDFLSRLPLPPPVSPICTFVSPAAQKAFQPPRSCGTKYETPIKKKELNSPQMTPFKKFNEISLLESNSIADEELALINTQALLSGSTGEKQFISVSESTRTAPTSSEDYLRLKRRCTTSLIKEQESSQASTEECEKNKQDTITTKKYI

RAD51 [2] = target: T1, RAD51; assay: pull-down; GST-tagged TR2 polypeptides captured on glutathione-Sepharose with RAD51; 10 µl buffer K (20 mM KH2PO4 pH 7.5, 0.5 mM EDTA, 10% glycerol, 0.01% Igepal) with 150 mM KCl; SDS-PAGE, Coomassie; conditions: both partners purified

binding result (RAD51 [1]): binds
B1: CTRB (BRCA2 residues 3194-3418), His6-Thioredoxin-S tagged, C-terminally Flag-tagged (domain or fragment, human, UniProt P51587 3194-3418, looked up)
chain: T2 sequence
notes: BRCA2, human, residues 3194-3418 of the 3,418-residue protein; No tag cleavage is described; also called wild-type CTRB; source: E. coli Rosetta (pET32a), purified (Ni-NTA, Source S, anti-Flag M2, Mono-Q)

binding result (RAD51 [1]): binds
B2: CTRB-S3291A (domain or fragment, human, UniProt P51587 3194-3418, looked up)
chain: T2 sequence with S98A
notes: BRCA2, human, CTRB (residues 3194-3418) with S3291A; Called a CTRB mutant purified as wild-type CTRB; source: E. coli, purified using the procedure developed for wild-type CTRB

binding result (RAD51 [1]): binds
B3: CTRB-4A (BRCA2 residues 3194-3418, KKRR(3266-3269) to AAAA) (domain or fragment, human, UniProt P51587 3194-3418, looked up)
chain: T2 sequence with K73A, K74A, R75A, R76A
notes: BRCA2, human, residues 3194-3418; also called 4 A mutant; source: E. coli Rosetta (pET32a), purified as the wild type

binding result (RAD51 [1]): binds
B4: CTRB-S3291E (domain or fragment, human, UniProt P51587 3194-3418, looked up)
chain: T2 sequence with S98E
notes: BRCA2, human, CTRB (residues 3194-3418) with S3291E; Called a CTRB mutant purified as wild-type CTRB; source: E. coli, purified using the procedure developed for wild-type CTRB

B5: Fork substrate (Oligo-H3/H5) (mixed)
DNA 1: TTGATAAGAGGTCATTTGAATTCATGGCTTAGAGCTTAATTGCTGAATCTGGTGCTGGGATCCAACATGTTTTAAATATG
DNA 2: CATATTTAAAACATGTTGGATCCCAGCACCAGATTCAGCATACGTTACCGATCGTACGTTCGATGCTGGCTACTGCTAGC
binding result (CTRB): binds

binding result (RAD51 [2]): binds
B6: GST-TR2 (BRCA2 residues 3265-3330) (domain or fragment, human, UniProt P51587 3265-3330, looked up)
chain: CKKRRALDFLSRLPLPPPVSPICTFVSPAAQKAFQPPRSCGTKYETPIKKKELNSPQMTPFKKFNE
notes: BRCA2, human, TR2 region, residues 3265-3330; also called BRCA2-TR2 polypeptide; source: E. coli Rosetta (pGEX-TR2), purified (glutathione-Sepharose, SP Sepharose); not shown: GST, N-terminal, kept

binding result (RAD51 [2]): binds
B7: GST-TR2 with deletion of residues 3306-3310 (domain or fragment, human, UniProt P51587 3265-3330, looked up)
chain: CKKRRALDFLSRLPLPPPVSPICTFVSPAAQKAFQPPRSCGPIKKKELNSPQMTPFKKFNE
notes: BRCA2, human, TR2 region, residues 3265-3330, internally truncated; source: E. coli Rosetta (pGEX-TR2 variant), purified (glutathione-Sepharose, SP Sepharose); not shown: GST, N-terminal, kept

binding result (RAD51 [2]): binds
B8: GST-TR2 with deletion of residues 3291-3295 (domain or fragment, human, UniProt P51587 3265-3330, looked up)
chain: CKKRRALDFLSRLPLPPPVSPICTFVKAFQPPRSCGTKYETPIKKKELNSPQMTPFKKFNE
notes: as for B7
